Experimental data published in US20250382622A1 (UNIVERSIT T BERN, published 2025).

Molecular target: T1, human Claudin-3 (human, UniProt O15551 1-220)
T1 sequence: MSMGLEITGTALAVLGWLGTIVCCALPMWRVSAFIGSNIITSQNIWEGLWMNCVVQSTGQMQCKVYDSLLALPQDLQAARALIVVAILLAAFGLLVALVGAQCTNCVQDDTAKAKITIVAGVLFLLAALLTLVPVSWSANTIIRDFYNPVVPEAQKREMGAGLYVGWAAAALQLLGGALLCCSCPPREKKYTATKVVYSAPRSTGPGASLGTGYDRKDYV
Assay: cell-based or functional assay

B1: GalNAc functionalized UB-VS003 (antibody, mouse IgG2a, kappa, V domains shown)
VH: EVQLQQSGPELVKPGGSMKISCKASGYSFTGYTMNWVKQSHGKNLEWIGLINPYNDGTNYNQKFKGKATLTVDKSSSTAYMELLSLTSEDSAVYYCSKKGGGYGGTWFAYWGQGTLVTVSA
VL: DIVMSQSPSSLAVSVGEKVTMSCKSSPSLLYSNNQKNYLAWYQQKPGQSPKLLIYWASTRESGVPDRFTGSGSGTDFTLTISSVKAEDLAVYYCQQYYSFPYTFGGGTKLEIKR
modifications: reacted with 25 equivalents of DBCO-PEG4-NHS, then with 100 equivalents of Trebler GalNAc-Azide; modified residues and chain not stated
  claudin-3/beta-actin ratio by western blot, human hepatocytes, 24 h, 1 nM antibody: ~45 % of control
  claudin-3/beta-actin ratio by western blot, human hepatocytes, 24 h, 30 nM antibody: ~30 % of control
  claudin-3/beta-actin ratio by western blot, human hepatocytes, 24 h, 100 nM antibody: ~10 % of control
